Laboratory results published in US20240181050A1 (COMPASS THERAPEUTICS, published 2024).

Columns and labels:
Assay in all cases: soluble point mutant tested for binding to mAb1; method not named
[1] = target: T1, human CD137 point mutant K114E, soluble protein (human, UniProt Q07011 24-186)
T1 construct: Printed as 'All 4 mutations tested at K114 (R, E, N, T)'; It was expressed as a soluble protein

[2] = target: T2, human CD137 point mutant K114T, soluble protein (human, UniProt Q07011 24-186)
T2 construct: Printed as 'All 4 mutations tested at K114 (R, E, N, T)'; It was expressed as a soluble protein

[3] = target: T3, human CD137 point mutant K114N, soluble protein (human, UniProt Q07011 24-186)
T3 construct: Printed as 'All 4 mutations tested at K114 (R, E, N, T)'; It was expressed as a soluble protein

[4] = target: T4, human CD137 point mutant K114R, soluble protein (human, UniProt Q07011 24-186)
T4 construct: Printed as 'All 4 mutations tested at K114 (R, E, N, T)'; It was isolated from the extracellular-domain library and expressed as a soluble protein
T4 sequence (Q07011 24-186 K114R limits assumed): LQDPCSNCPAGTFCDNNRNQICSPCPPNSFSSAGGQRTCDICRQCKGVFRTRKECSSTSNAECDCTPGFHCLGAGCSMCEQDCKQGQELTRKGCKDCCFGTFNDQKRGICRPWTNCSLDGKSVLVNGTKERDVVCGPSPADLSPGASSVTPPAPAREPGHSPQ

T1 sequence (Q07011 24-186 K114E limits assumed): as the sequence (Q07011 24-186 K114R limits assumed) above, with R91E counted along it
T3 sequence (Q07011 24-186 K114N limits assumed): as the sequence (Q07011 24-186 K114R limits assumed) above, with R91N counted along it
T2 sequence (Q07011 24-186 K114T limits assumed): as the sequence (Q07011 24-186 K114R limits assumed) above, with R91T counted along it

- binding result [1]: no binding
- binding result [2]: no binding
- binding result [3]: no binding
- binding result [4]: no binding
B1: anti-CD137 mAb1 (antibody, human IgG4 S228P, kappa, V domains shown)
VH: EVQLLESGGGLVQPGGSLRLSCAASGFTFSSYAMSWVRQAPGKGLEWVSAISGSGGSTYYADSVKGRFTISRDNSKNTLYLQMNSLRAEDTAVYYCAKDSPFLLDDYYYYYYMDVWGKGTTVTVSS
VL: DIQMTQSPSSVSASVGDRVTITCRASQGISSWLAWYQQKPGKAPKLLIYAASSLQSGVPSRFSGSGSGTDFTLTISSLQPEDFATYYCQQGHLFPITFGGGTKVEIKR
notes: also called parental mAb1
